Experiments:
[1] = test system: HT-1080 overexpressing NHE6^527-588 peptide; assay: MTT cell viability assay in HT-1080 expressing NHE6^527-588 or scrambled peptide; format: cell-based, human; details: HT-1080, overexpression of the fragment
Procedure: peGFP-N3-NHE6 was generously provided by Hiroshi Kanazawa (Osaka University, Japan). pcDNA3-HA/NHE6 was constructed from peGFP-N3-NHE6. For this, the entire NHE6 coding sequence was excised with BamHI and EcoRI restriction enzymes and cloned in pcDNA3-HA vector. pcDNA3-HA/NHE6^527-588 was designed from pcDNA3-HA/NHE6 using the following primers: […]
HT-1080 cells were stably transfected with Polyethylenimine (PEI, MirusBio) and positive cells were selected with Geneticin™ (G418) at 400 μg/mL. In the case of MDA-MB-231 cells, plasmids were transfected using Lipofectamine™ 2000 ([…]) and G418 was added to cell cultures at a concentration of 2 mg/mL.
Cells (5×10^3) were cultured in 96-well plates and pre-incubated under 21% O2 or 1% O2 for 4 h following the addition of drugs for 72 h. Cell viability was measured using the 3-(4,5-dimethylthiazol-2-yl)-2,5-diphenyltetrazolium bromide (MTT) dye (Life Technologies) according to manufacturer's instructions. Because hypoxic conditions may affect the reduction of MTT to formazan, incubation of all cell cultures with MTT were performed under normoxic conditions. Each experiment was performed in triplicate and at least three independent experiments were performed. Log-scale dose-response data were plotted on a graph and a three-parameter non-linear regression was applied to determine IC50 values. For calculation of the IC50s, both normoxic and hypoxic drug-treated samples were normalized with their untreated counterpart.
The middle portion (position 527-588) of the NHE6 cytoplasmic tail has previously been reported to interact with RACK1^31. Stable HT-1080 cells expressing the NHE6^527-588 fragment or a scrambled counterpart were generated.

[2] = test system: HT-1080 cells; assay: Intracellular localization of Dox by confocal live-cell imaging, HT-1080; format: cell-based, human; details: HT-1080, expression of the peptide, 1% O2, 4 h
Procedure: Cells were cultured in 25 mm-diameter glass coverslips (Thermo Fisher Scientific) and incubated under various conditions (as indicated in the FIG. legends). Cells were then incubated for 2 h in a medium containing Dox (2 μM). After the incubation period, cells were washed to remove excess Dox and left in drug-free media for 10 min. […] Coverslips were mounted on glass slides and placed on a 37° C. warmed stage of an Olympus Fluoview™ FV1000 (Olympus, Tokyo, Japan) confocal laser scanning microscope. Dox was excited with a green helium neon laser (543 nm) and emitted fluorescence intensity was measured. Images were acquired on the same day, typically from 10-20 cells of similar size from each experimental condition, using identical instrument settings.

[3] = test system: HT-1080 tumor xenografts; assay: Chorioallantoic membrane (CAM) xenograft assay, HT-1080; format: in vivo, chick embryo; details: NHE6^527-588-overexpressing HT-1080 xenografts on CAM, 0.5 μM Dox
Procedure: (§1) Fertilized eggs from white leghorn chicken were obtained from Public Health Agency of Canada (Nepean, ON). Ethics approval was obtained from the Ethics Committee on Animal Research of the University of Sherbrooke and all experimental procedures involving embryos were conducted in accordance with the regulations of the Canadian Council on Animal Care. Eggs were incubated in an Ova-Easy egg incubator (Brinsea) at 37° C. with 60% humidity. At Day 3, eggs were cracked as described^67. At Day 9, HT-1080 and MDA-MB-231 cell suspensions (1×10^6 and 2×10^6 cells, respectively) were mixed (1:1) with growth factor reduced Matrigel (BD Biosciences) in a total volume of 20 μl. Cell grafts were placed on top of the CAM and eggs were returned to the incubator for 96 h until Day 13 (n>6 chick embryos per cell line). When mentioned, 50 μl of Dox were added topically to the formed tumors (Day 13 after tumor cell grafting). At Day 16, chick embryos were euthanatized by decapitation. Tumors were removed and tumor volumes were calculated using the formula: (Dd^2/3). For RNA quantification, tumors were immediately snap-frozen in liquid nitrogen and kept at −80° C. until RNA extraction using the Trizol reagent.
(§2) To determine whether these observations were of relevance to tumor therapy in vivo, the inventors used an ex ovo chorioallantoic membrane (CAM) xenograft model in live chicken embryos^40. MDA-MB-231 or HT-1080 cells, or cells expressing either the NHE6^527-588 competing fragment or its scrambled counterpart were inoculated onto the CAM of 9-day-old chick embryos. After allowing 3 days for cells to engraft, tumors were treated with Doxorubicin or PBS. Four days later, chick embryos were euthanized, and tumors were removed for analysis (FIG. 10A). To first ascertain that tumors implanted in CAM developed hypoxia, total mRNA was extracted from tumors generated by untransfected HT-1080 cells and gene expression of the hypoxic markers CA9, GLUT1 and MCT4 was measured by qPCR. […]

[4] = test system: NHE6-RACK1 interaction; assay: Co-immunoprecipitation of NHE6 with RACK1 in HT-1080; format: cell-based, human; details: HT-1080, ectopic expression of the sequence, 1% O2, 4 h
Procedure: Cells were lysed on ice in NP-40-containing buffer (50 mM Tris-HCl pH 8.0, 150 mM NaCl, 1% NP-40, 5 mM EDTA, phosphatase and protease inhibitors). Cell lysates were centrifuged at 13,000 rpm at 4° C. and protein concentration determined using the BCA protein assay (Thermo Fisher Scientific). After a pre-clearing step with protein A/G-agarose beads (GE Healthcare), protein complexes were immunoprecipitated overnight at 4° C. Samples were incubated in SDS-loading buffer for 30 minutes at room temperature to avoid transmembrane protein aggregates upon heating in a boiling water bath. Proteins were separated by SDS-PAGE electrophoresis, transferred to a PVDF membrane and immunoblotting was performed as described, using anti-NHE6 (1:1000), anti-NHE9 (1:1000) anti-RACK1 (1:2000), anti-tubulin (1:5000), anti-actin (1:5000) anti-HA (1:1000), anti-PKC (1:200), anti-phospho PKC substrate (1:1000), anti-LAMP2 (1:200), anti-P-glycoprotein (1:200) and HRP-conjugated secondary antibodies (1/10 000)^66.

[5] = test system: HT-1080 cells; assay: Intracellular pH measurement (HPTS/SNARF-1) by confocal microscopy, HT-1080; format: cell-based, human; details: HT-1080, expression of the peptide, 1% O2, 4 h
Procedure: The pH sensing ratiometric dyes SNARF-1 and HPTS (Life Technologies) were used simultaneously for pH measurement of both cytoplasmic (C-SNARF-1) and endosomal/lysosomal (HPTS) compartments as previously described^30. Briefly, cells were cultured in 35 mm petri dishes (BD Biosciences) and used at 50% confluence. For endocytic labeling, cells were incubated overnight with HPTS (1 mM), washed, followed by a 20-min incubation with SNARF-1 (5 μM) to label the cytoplasmic compartment. Living cells were analyzed using an Olympus Fluoview™ FV1000 confocal microscope. Fluorescence emissions of both pH-sensing probes were recorded and subsequently analyzed as described^30.

[6] = test system: MDA-MB-231 tumor xenografts; assay: Chorioallantoic membrane (CAM) xenograft assay, MDA-MB-231; format: in vivo, chick embryo; details: NHE6^527-588-overexpressing MDA-MB-231 xenografts on CAM, 1 μM Dox
Procedure: as §1, §2

[7] = test system: NHE6; assay: NHE6 localization (cell-surface biotinylation, EEA1 immunofluorescence) in HT-1080; format: cell-based, human; details: HT-1080, expression of the peptide, 1% O2, 4 h
Procedure: Biotinylation steps were performed at […] Cells were grown on circular 15-mm diameter glass coverslips (Thermo Fisher Scientific) and incubated at 21% or 1% O2. Cells were then washed with PBS containing 1 mM CaCl2 and 0.5 mM MgCl2 (PBSCM) and incubated for 5 min with 0.3 mg/ml of EZ-Link Sulfo-NHS-SS-Biotin (Pierce) in PBSCM. Unreacted biotin was quenched using 100 mM glycine. Cells were fixed for 10 min at room temperature using 1% PFA in PBS. Prior to staining, cells were blocked with 5% of BSA for 1 h at room temperature. Biotinylated cells were stained with 5 μg/ml Streptavidin Texas Red (Invitrogen) for 1 h at 4° C. Coverslips were washed and mounted on a microscope slide using Vectashield mounting media (Vector labs).
Cultured cells were fixed with 1% PFA for 10 min at room temperature, permeabilized with saponin (0.05% in PBS) for 20 min, and blocked with 2% BSA in PBS for 30 min. Cells were then incubated with the appropriate primary and secondary antibodies as follows: anti-EEA1 (1/500), anti-Rab7 (1/500) and fluorophore-conjugated secondary antibodies (1/1000). Images were recorded using an Olympus Fluoview™ FV1000 confocal microscope using a 63× oil immersion objective.

B1: TKAESAWLFRMWYNFDHNYLKPLLTHSGPPLTTTLPACCGPIARCLTSPQAYENQEQLKDDD (protein)
chain: TKAESAWLFRMWYNFDHNYLKPLLTHSGPPLTTTLPACCGPIARCLTSPQAYENQEQLKDDD
notes: NHE6 cytoplasmic tail fragment 527-588, expressed in cells from a plasmid
[1]; hypoxia
  increase in drug (Dox) sensitivity: 2.8 fold
[1]; normoxic conditions
  sensitivity of the cells to Dox: did not change
[2]
  hypoxia-induced diminution in nuclear Dox and Dox accumulation within endosomes: greatly impaired
[3]
  tumor volume compared to xenografts overexpressing a control peptide: small but significant decrease in tumor volume
[4]
  hypoxia-induced interaction of NHE6 with RACK1: prevented
[5]
  hypoxia-induced intravesicular hyperacidification: greatly impaired
[6]
  tumor volume compared to xenografts overexpressing a control peptide: small but significant decrease in tumor volume
[7]
  hypoxia-induced NHE6 relocalization from endosomes to the plasma membrane: greatly impaired
